According to patent EP2922560B1 (Biotechnologicky Ustav AV CR, v.v.i., dated 2017):
Numbering of substitutions follows the chain as printed. Values belong to the binder of their own block, whether it stands above or below them.

How the values were obtained:
[1] = target: T1, H-exIL-23R, N-terminally His6-tagged extracellular domain of human IL-23 receptor (residues 24 to 350) (human, UniProt Q5VWK5 24-350); assay: ELISA, immobilized H-exIL-23R; confirmed in the reversed setup
T1 construct: range 24-350; also called recombinant extracellular IL-23 receptor; not shown: N-terminal His6 tag
T1 sequence (looked up): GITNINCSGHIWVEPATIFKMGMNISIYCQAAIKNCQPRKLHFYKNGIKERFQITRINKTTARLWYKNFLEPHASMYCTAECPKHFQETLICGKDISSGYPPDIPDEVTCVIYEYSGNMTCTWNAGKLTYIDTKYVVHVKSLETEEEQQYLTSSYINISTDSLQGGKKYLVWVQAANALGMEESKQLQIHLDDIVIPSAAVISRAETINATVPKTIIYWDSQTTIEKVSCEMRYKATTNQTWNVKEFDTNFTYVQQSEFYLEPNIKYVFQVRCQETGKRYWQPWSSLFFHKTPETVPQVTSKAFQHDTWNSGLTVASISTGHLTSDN

[2] = target: T2, native human IL-23 receptor on the surface of cultured human cells (K-562, THP-1, Jurkat) and primary human … (human, UniProt Q5VWK5 24-629); assay: flow cytometry on THP-1 and K-562 cells, 10 µg/ml DH-p19, anti-p19 mAb and Cy5 anti-mouse IgG
T2 construct: whole, on cells; endogenous expression; the cell line is named under assay; also called cell surface IL-23R
T2 sequence (looked up): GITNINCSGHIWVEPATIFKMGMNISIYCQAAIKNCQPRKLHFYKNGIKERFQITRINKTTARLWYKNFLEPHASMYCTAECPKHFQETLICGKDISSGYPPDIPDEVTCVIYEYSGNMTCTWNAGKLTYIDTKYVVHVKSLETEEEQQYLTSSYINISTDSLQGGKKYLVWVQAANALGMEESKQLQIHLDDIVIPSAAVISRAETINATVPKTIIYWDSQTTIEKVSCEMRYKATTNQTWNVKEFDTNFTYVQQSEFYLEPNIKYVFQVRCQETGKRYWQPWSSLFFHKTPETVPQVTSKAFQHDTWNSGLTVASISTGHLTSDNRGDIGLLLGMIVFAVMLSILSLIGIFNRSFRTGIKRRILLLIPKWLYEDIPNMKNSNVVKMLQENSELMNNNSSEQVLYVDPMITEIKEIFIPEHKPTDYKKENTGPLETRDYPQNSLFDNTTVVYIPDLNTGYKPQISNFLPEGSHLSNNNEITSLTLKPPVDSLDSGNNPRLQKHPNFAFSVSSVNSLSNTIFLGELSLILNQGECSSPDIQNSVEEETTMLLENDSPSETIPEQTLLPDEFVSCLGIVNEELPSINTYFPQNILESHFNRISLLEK

[3] = target: T1, H-exIL-23R, N-terminally His6-tagged …; assay: ELISA, immobilized exIL-23R (Figure 1 legend)
[4] = target: T3, recombinant human IL-23R-IgG chimera (R&D Systems) (human, UniProt Q5VWK5 24-353, glycosylated); assay: SPR, REX125-TolA-AVI immobilized, IL-23R-IgG chimera flowed, sodium acetate buffer pH 5.0, 25°C; more complex interaction mode
T3 construct: bought; soluble, glycosylated, secreted by an NS0-derived mouse myeloma cell line; also called IL-23R-IgG receptor chimera

[5] = target: T2, native human IL-23 receptor on the …; assay: cell-based or functional assay
[6] = target: T3, recombinant human IL-23R-IgG chimera …; assay: SPR, REX009-TolA-AVI immobilized, IL-23R-IgG chimera 20-200 nM flowed, sodium acetate buffer pH 5.0, 25°C, 1:1 model, global fit

binding result [1]: binds
binding result [2]: binds
B1: DH-p19, mature p19 subunit of human IL-23 with N-terminal double-His6-TEV tag (ligand, UniProt Q9NPF7 20-189, looked up)
chain: RAVPGGSSPAWTQCQQLSQKLCTLAWSAHPLVGHMDLREEGDEETTNDVPHIQCGDGCDPQGLRDNSQFCLQRIHQGLIFYEKLLGSDIFTGEPSLLPDSPVGQLHASLLGLSQLLQPEGHHWETQQIPSLSPSQPWQRLLLRFKILRSLQAFVAVAARVFAHGAATLSP
notes: mature; not shown: N-terminal double-His6-TEV purification tag

binding result [3]: binds
B2: DH-MBP-p19, double His6-maltose-binding protein-p19 fusion with C-terminal 40 aa prolongation (ligand, human)
chain: RAVPGGSSPAWTQCQQLSQKLCTLAWSAHPLVGHMDLREEGDEETTNDVPHIQCGDGCDPQGLRDNSQFCLQRIHQGLIFYEKLLGSDIFTGEPSLLPDSPVGQLHASLLGLSQLLQPEGHHWETQQIPSLSPSQPWQRLLLRFKILRSLQAFVAVAARVFAHGAATLSPLEKKTCTSRASSTTTTTTEIRLLTKPERKLSWLLPPLSNN
notes: 69 kDa, soluble, E. coli BL21(DE3), Ni-NTA purified; also called soluble p19; p19-MBP fusion protein; not shown: N-terminal double His6 tag; followed by TEV site and cloning-site residues that are not pri

Kd [4]: ~1 nM
Th-17+ cell expansion (IL-17-producing cells) in PBMC suspensions after 3 days, normalized to IL-23 only = 1 [5]: 0.42 normalized cell count (IL-23 only = 1)
Th-17+ cell expansion in separated T-cell samples after 3 days, normalized to IL-23 only = 1 [5]: 0.65 normalized cell count (IL-23 only = 1)
B3: His6-REX125-TolA-AVI (designed binder)
chain: LAEAKVLANRELDKYGVSDHYKNWINPARRVRPVKWLIDAILAALPQKQAEEAAAKAAADAKAKAEADAKAAEEAAKKAAADAKKKAEAEAAKAAAEAQKKAEAAAAALKKKAEAAEAAAAEARKKAATEAAEKAKAEAEKKAAAEKAAADKKAAAEKAAADKKAAEKAAAEKAAADKKAAAEKAAADKKAAAAKAAAEKAAAAKAAAEADDIFGELSSGKNAPKTGGGAKGNNASPAGSGNTKNNGASGADINNYAGQIKSAIESKFYDASSYAGKTCTLRIKLAPDGMLLDIKPEGGDPALCQAALAAAKLAKIPKPPSQAVYEVFKNAPLDFKPGLNDIFEAQKIEWHE
modifications: in vivo biotinylated at the AviTag (BirA)
notes: also called REX-TolA-AVI; not shown: N-terminal His6 tag

Th-17+ cell expansion (IL-17-producing cells) in PBMC suspensions after 3 days, normalized to IL-23 only = 1 [5]: 0.55 normalized cell count (IL-23 only = 1)
Th-17+ cell expansion in separated T-cell samples after 3 days, normalized to IL-23 only = 1 [5]: 0.69 normalized cell count (IL-23 only = 1)
B4: His6-REX115-TolA-AVI (designed binder, not shown: small tags and cut ends)
chain: B3 chain with H20V, W24T, P27I, R29I, R30P, P33V, W36R, L37V, A40W, A44V
modifications: in vivo biotinylated at the AviTag (BirA)

Kd [6]: 1.3 nM
Th-17+ cell expansion (IL-17-producing cells) in PBMC suspensions after 3 days, normalized to IL-23 only = 1 [5]: 0.62 normalized cell count (IL-23 only = 1)
Th-17+ cell expansion in separated T-cell samples after 3 days, normalized to IL-23 only = 1 [5]: 0.8 normalized cell count (IL-23 only = 1)
B5: His6-REX009-TolA-AVI (designed binder)
chain: B3 chain with H20Y, W24R, R29C, R30H, R32L, P33S, W36S, L37N, A40W, A44S
modifications: in vivo biotinylated at the AviTag (BirA)
notes: as for B3
